Results as given in patent US20170209564A1.

Key:
Assay in all cases: ELISA signal over HTRF expression signal, P. pastoris
Conditions in all cases: remark: other sources report otherwise
86B3 = molecular target: 86B3
2C4 = molecular target: 2C4
9C10 = molecular target: 9C10
55G7 = molecular target: 55G7
69G8 = molecular target: 69G8
75G5 = molecular target: 75G5
36H2 = molecular target: 36H2
81F11 = molecular target: 81F11
27B10 = molecular target: 27B10
86G3 = molecular target: 86G3
67C10 = molecular target: 67C10
91C8 = molecular target: 91C8
79C2 = molecular target: 79C2
58A5 = molecular target: 58A5
60A2 = molecular target: 60A2
76D10 = molecular target: 76D10
56D2 = molecular target: 56D2
89F11 = molecular target: 89F11
86F1 = molecular target: 86F1
86G2 = molecular target: 86G2
84E10 = molecular target: 84E10
70F6 = molecular target: 70F6
69D2 = molecular target: 69D2
53G10 = molecular target: 53G10
91C4 = molecular target: 91C4
90A9 = molecular target: 90A9
88C5 = molecular target: 88C5
7B6 = molecular target: 7B6
71H2 = molecular target: 71H2
71D3 = molecular target: 71D3
58A11 = molecular target: 58A11
74H9 = molecular target: 74H9
51G10 = molecular target: 51G10
54H4 = molecular target: 54H4
71E7 = molecular target: 71E7
78F11 = molecular target: 78F11
7D9 = molecular target: 7D9
10F9 = molecular target: 10F9

B1: CR6261 (antibody, V domains shown)
VH: EVQLVESGAEVKKPGSSVKVSCKASGGPFRSYAISWVRQAPGQGPEWMGGIIPIFGTTKYAPKFQGRVTITADDFAGTVYMELSSLRSEDTAMYYCAKHMGYQVRETMDVWGKGTTVTVSS
VL: QSVLTQPPSVSAAPGQKVTISCSGSSSNIGNDYVSWYQQLPGTAPKLLIYDNNKRPSGIPDRFSGSKSGTSATLGITGLQTGDEANYYCATWDRRPTAYVVFGGGTKLTVLG
Binder B1 has a fold increase of ratio over parental SEQ ID NO: 6 (86B3) of 10.5, a ratio (binding signal/HTRF signal) (86B3) of 62.4 and a fold increase of ratio over parental SEQ ID NO: 6 (2C4) of 4.29. For the same binder, the ratio (binding signal/HTRF signal) (2C4) was 25.5, the fold increase of ratio over parental SEQ ID NO: 6 (9C10) was 2.91 and the ratio (binding signal/HTRF signal) (9C10) was 17.3. It also gave a fold increase of ratio over parental SEQ ID NO: 6 (55G7) of 11.8, a ratio (binding signal/HTRF signal) (55G7) of 70.3 and a fold increase of ratio over parental SEQ ID NO: 6 (69G8) of 8.55. For the same binder, the ratio (binding signal/HTRF signal) (69G8) was 50.8, the fold increase of ratio over parental SEQ ID NO: 6 (75G5) was 6.38 and the ratio (binding signal/HTRF signal) (75G5) was 37.9. For the same binder, the fold increase of ratio over parental SEQ ID NO: 6 (36H2) was 1.95, the ratio (binding signal/HTRF signal) (36H2) was 11.6 and the fold increase of ratio over parental SEQ ID NO: 6 (81F11) was 5.37. For the same binder, the ratio (binding signal/HTRF signal) (81F11) was 31.9, the fold increase of ratio over parental SEQ ID NO: 6 (27B10) was 2.75 and the ratio (binding signal/HTRF signal) (27B10) was 16.3. For the same binder, the fold increase of ratio over parental SEQ ID NO: 6 (86G3) was 3.87, the ratio (binding signal/HTRF signal) (86G3) was 23 and the fold increase of ratio over parental SEQ ID NO: 6 (67C10) was 3.99. For the same binder, the ratio (binding signal/HTRF signal) (67C10) was 23.7, the fold increase of ratio over parental SEQ ID NO: 6 (91C8) was 3.51 and the ratio (binding signal/HTRF signal) (91C8) was 20.8. For the same binder, the fold increase of ratio over parental SEQ ID NO: 6 (79C2) was 8.62, the ratio (binding signal/HTRF signal) (79C2) was 51.2 and the fold increase of ratio over parental SEQ ID NO: 6 (58A5) was 3.69. The ratio (binding signal/HTRF signal) (58A5) was 21.9, the fold increase of ratio over parental SEQ ID NO: 6 (60A2) was 2.53 and the ratio (binding signal/HTRF signal) (60A2) was 15. The fold increase of ratio over parental SEQ ID NO: 6 (76D10) was 1.97, the ratio (binding signal/HTRF signal) (76D10) was 11.7 and the fold increase of ratio over parental SEQ ID NO: 6 (56D2) was 2.3. The ratio (binding signal/HTRF signal) (56D2) was 13.7, the fold increase of ratio over parental SEQ ID NO: 6 (89F11) was 2.42 and the ratio (binding signal/HTRF signal) (89F11) was 14.4. For the same binder, the fold increase of ratio over parental SEQ ID NO: 6 (86F1) was 2.92, the ratio (binding signal/HTRF signal) (86F1) was 17.4 and the fold increase of ratio over parental SEQ ID NO: 6 (86G2) was 1.93. It also gave a ratio (binding signal/HTRF signal) (86G2) of 11.5, a fold increase of ratio over parental SEQ ID NO: 6 (84E10) of 5.37 and a ratio (binding signal/HTRF signal) (84E10) of 31.9. For the same binder, the fold increase of ratio over parental SEQ ID NO: 6 (70F6) was 1.63, the ratio (binding signal/HTRF signal) (70F6) was 9.66 and the fold increase of ratio over parental SEQ ID NO: 6 (69D2) was 2.19. It also gave a ratio (binding signal/HTRF signal) (69D2) of 13, a fold increase of ratio over parental SEQ ID NO: 6 (53G10) of 2.93 and a ratio (binding signal/HTRF signal) (53G10) of 17.4. It also gave a fold increase of ratio over parental SEQ ID NO: 6 (91C4) of 4.35, a ratio (binding signal/HTRF signal) (91C4) of 25.8 and a fold increase of ratio over parental SEQ ID NO: 6 (90A9) of 7.72. It also gave a ratio (binding signal/HTRF signal) (90A9) of 45.8, a fold increase of ratio over parental SEQ ID NO: 6 (88C5) of 5.94 and a ratio (binding signal/HTRF signal) (88C5) of 35.3. The fold increase of ratio over parental SEQ ID NO: 6 (7B6) was 1.66, the ratio (binding signal/HTRF signal) (7B6) was 9.84 and the fold increase of ratio over parental SEQ ID NO: 6 (71H2) was 11.2. It also gave a ratio (binding signal/HTRF signal) (71H2) of 66.3, a fold increase of ratio over parental SEQ ID NO: 6 (71D3) of 5.67 and a ratio (binding signal/HTRF signal) (71D3) of 33.7. The fold increase of ratio over parental SEQ ID NO: 6 (58A11) was 1.67, the ratio (binding signal/HTRF signal) (58A11) was 9.93 and the fold increase of ratio over parental SEQ ID NO: 6 (74H9) was 6.09. For the same binder, the ratio (binding signal/HTRF signal) (74H9) was 36.1, the fold increase of ratio over parental SEQ ID NO: 6 (51G10) was 3.73 and the ratio (binding signal/HTRF signal) (51G10) was 22.1. For the same binder, the fold increase of ratio over parental SEQ ID NO: 6 (54H4) was 8.39, the ratio (binding signal/HTRF signal) (54H4) was 49.8 and the fold increase of ratio over parental SEQ ID NO: 6 (71E7) was 3.19. It also gave a ratio (binding signal/HTRF signal) (71E7) of 19, a fold increase of ratio over parental SEQ ID NO: 6 (78F11) of 3.41 and a ratio (binding signal/HTRF signal) (78F11) of 20.2. The fold increase of ratio over parental SEQ ID NO: 6 (7D9) was 2.07, the ratio (binding signal/HTRF signal) (7D9) was 12.3 and the fold increase of ratio over parental SEQ ID NO: 6 (10F9) was 3.93. For the same binder, the ratio (binding signal/HTRF signal) (10F9) was 23.3.
